The record followed here is paper PMC7864571.

The target of this series is T1, NXF1(RRM-LRR) (UniProt Q9UBU9 96-362).
T1 sequence: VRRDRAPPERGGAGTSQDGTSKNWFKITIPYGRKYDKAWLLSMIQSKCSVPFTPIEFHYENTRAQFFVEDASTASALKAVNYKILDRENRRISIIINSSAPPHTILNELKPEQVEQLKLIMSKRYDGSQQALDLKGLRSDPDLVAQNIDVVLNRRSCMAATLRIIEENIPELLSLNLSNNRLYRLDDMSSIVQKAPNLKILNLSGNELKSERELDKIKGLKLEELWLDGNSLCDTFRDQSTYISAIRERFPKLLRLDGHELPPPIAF
The series can be described thus: EMSA; in presence of GST-Nsp1(1-129); RNA binding of NXF1 not impaired; 10 mM Tris pH 8.0, 100 mM NaCl, 0.5 mM TCEP, 8% glycerol, 0.5 U/ul SUPERase-In, room temperature 10 min; 5% native PAGE; 100 nM RNA. Particulars: protein: recombinant; tags: GST tag removed by TEV; label: 5' Alexa Fluor 488; single strand. In general terms: Mobility shift assays separate free from complexed probe on a gel.

UUUUUUUUUUUUUUU (ssRNA) [poly(U) 15-mer RNA]: the binding result is listed as “binds”.
